To fix the notation:
B1: Ribonuclease, P00648 (parent)
chain: MMKMEGIALKKRLSWISVCLLVLVSAAGMLFSTAAKTETSSHKAHTEAQVINTFDGVADYLQTYHKLPDNYITKSEAQALGWVASKGNLADVAPGKSIGGDIFSNREGKLPGKSGRTWREADINYTSGFRNSDRILYSSDWLIYKTTDHYQTFTKIR

This series covers variants of B1. The conditions noted are these: Bacillus amyloliquefaciens; pH 6.3; 25 °C; Urea; Fluorescence; MES 1.00 M; NaCl 613 mM; reversible: yes; structure 1BNI; whole UniProt chain shown.

Take Y64F: the “ddG of mutation (higher = less stable)” value was determined as 0.58 kcal/mol, the denaturant m value is 2.16 kcal/mol/M, the “denaturant midpoint (higher = more stable)” value was determined as 4.43 M and the unfolding free energy was determined as 9.57 kcal/mol.
For Y60F Y64F the same measures were 1.23 kcal/mol, 2.08 kcal/mol/M, 4.29 M and 8.92 kcal/mol.
The like results for Y60A Y64A were, in that order, 4.76 kcal/mol, 2.22 kcal/mol/M, 2.43 M and 5.39 kcal/mol.
For Y60F the same measures were 0.63 kcal/mol, 2.17 kcal/mol/M, 4.38 M and 9.52 kcal/mol.
As for Y60A, the “ddG of mutation (higher = less stable)” value is 3.69 kcal/mol, the denaturant m value was 2.26 kcal/mol/M, the “denaturant midpoint (higher = more stable)” value was 2.86 M and the unfolding free energy was 6.46 kcal/mol.

These data come from FireProtDB (doi:10.1016/0022-2836(91)90725-l).
